Experimental findings from patent US20230069996A1 are described below.

Test [1] addresses IL-22 receptors on COLO205 cells (UniProt Q8N6P7).
Test [2] shares this target. This is another data set of the same source.

IL-22 receptors on COLO205 cells, sequence (Q8N6P7 16-574 limits assumed, chain 1 of 2): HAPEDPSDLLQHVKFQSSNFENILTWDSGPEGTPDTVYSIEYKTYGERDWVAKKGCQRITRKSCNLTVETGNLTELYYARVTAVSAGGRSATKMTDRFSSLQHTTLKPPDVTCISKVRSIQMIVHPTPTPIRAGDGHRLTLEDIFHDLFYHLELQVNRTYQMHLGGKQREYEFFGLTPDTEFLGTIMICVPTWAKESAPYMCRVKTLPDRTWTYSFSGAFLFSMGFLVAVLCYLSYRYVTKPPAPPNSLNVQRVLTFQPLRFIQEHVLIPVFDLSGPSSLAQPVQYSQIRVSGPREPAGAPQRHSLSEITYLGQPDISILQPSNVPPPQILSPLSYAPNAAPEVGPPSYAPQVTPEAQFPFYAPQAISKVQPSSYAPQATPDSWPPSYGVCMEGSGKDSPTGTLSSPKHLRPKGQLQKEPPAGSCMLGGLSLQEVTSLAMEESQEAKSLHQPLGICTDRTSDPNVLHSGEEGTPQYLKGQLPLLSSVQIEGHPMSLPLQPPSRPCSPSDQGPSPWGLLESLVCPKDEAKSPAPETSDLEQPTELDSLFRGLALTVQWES
IL-22 receptors on COLO205 cells, sequence (Q08334 20-325 limits assumed, chain 2 of 2, further chain): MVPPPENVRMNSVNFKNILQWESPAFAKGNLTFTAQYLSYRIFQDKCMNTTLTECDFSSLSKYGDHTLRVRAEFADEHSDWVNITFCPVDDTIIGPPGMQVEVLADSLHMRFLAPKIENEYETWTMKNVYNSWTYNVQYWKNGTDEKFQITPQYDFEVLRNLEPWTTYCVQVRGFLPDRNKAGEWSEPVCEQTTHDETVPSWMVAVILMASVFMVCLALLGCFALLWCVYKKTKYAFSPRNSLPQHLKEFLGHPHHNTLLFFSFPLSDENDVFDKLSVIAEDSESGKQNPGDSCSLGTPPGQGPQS

In test [1], “human IL-22 (from UniProt Q9GZX6) (ligand)” came in with an EC50 (read off the curve) of IL-10 secretion by COLO205 cells, human IL-22 incubated with uPA of 0.05 nM. For the same substance, in test [2], the EC50 (read off the curve) of IL-10 secretion by COLO205 cells, human IL-22 without uPA was 0.08 nM.
